Assay results: patent US20230285581A1
Changes are numbered by the printed parent chain. Numbers in names are those of the source.

B1: H1H21227N-N297Q (antibody, human IgG1, V domains shown)
VH: QVQLVQSGAEVKKPGASVKVSCKVSGYTLTELSIHWVRQVPGKGLEWMGGFDPEEGETIFAQEFRDRVTLTEDTSPDTAYMELSSLKSEDAAVYYCTTPRYCNNGICYDYWGQGTLVTVSS
VL: DIQMTQSPSSLSASVGDRVTITCRASQSISNYLNWYQQKPGKAPKLLIYTASSLQSGVPSRFSGSGSGTDFTLTISSLQTEDFATYYCQQSYSNFPITFGQGTRLEIKR
B2: H1H21231N (antibody, human IgG1, V domains shown)
VH: EVQLVESGGGLVQPGGSLRLSCAASGFTFSDHYMDWVRQAPGKGLEWVGRTRNKANSHTTEYTASVTGRFTISRDDSRNSLYLQMNSLKTEDTAVYYCVRAGIIGTLFDYWGQGTLVTVSS
VL: B1 VL with S7F, N31S, Y32F, Y36F, L46F, T50A, T80P, N94S, F95P
B3: H1H21227N-N297D (antibody, human IgG1, V domains shown)
VH: B1 VH
VL: B1 VL
B4: H1H21227N (antibody, human IgG1, V domains shown)
VH: B1 VH
VL: B1 VL
B5: H1H21231N-N297Q (antibody, human IgG1, V domains shown)
VH: B2 VH
VL: B1 VL with S7F, N31S, Y32F, Y36F, L46F, T50A, T80P, N94S, F95P
B6: H1H27747P-N297Q (antibody, human IgG1, V domains shown)
VH: QVQLVESGGAVVQPGRSLRLSCAASGFTFSYYGMHWVRQAPGKGLEWVAVISYDGSKKYYADSVKGRFTISRDNSKNTLYLQMNSLRAEDTAVYYCAKDLTVDFYYGMDVWGQGTTVTVSS
VL: DIQMTQSPSSVSASVGDRVTITCRASQGISSWLAWYQQKPGKAPKLLIYATSSLQSGAPSRFSGSGSGTDFTLTISSLQPEDFATYFCQQANSFPYTFGQGTKLEIKR
B7: H1H27754P-N297Q (antibody, human IgG1, V domains shown)
VH: EVQLVESGGGLVQPGGSLRLSCAASGFTFRTYAMTWVRQAPGKGLDWVSAITGDGGNTYYADSVKGRFTISRDNSKNTLYLQMNSLRAEDTAIYYCAKDQRFSFALYYFDYWGQGTLVTVSS
VL: B6 VL with K42N, T51A, S52F, A58V, F87Y, S93N, Y96W, L104V
B8: H1H27739P-N297Q (antibody, human IgG1, V domains shown)
VH: EVQLVESGGGLVQPGGSLRLSCTASGFTFSSYAMSWVRQAPGKGLEWVSAISGTGSSTYFTDSVKGRFAISRDNSKNTLYLQMNSLRAEDTAVYYCAKDGEWLSTVTLFDYWGQGTLVTVSS
VL: EIVMTQSPATLSVSPGERATLSCRASQSVSSNLAWYQQKPGQAPRLLIYGASTRATGIPARFSGSGSGTDFTLTISSLQSEDFALYYCQQYFIWPPHPTFGPGTKVDIKR
B9: H1H21234N-N297Q (antibody, human IgG1, V domains shown)
VH: QVQLQESGPGLVKPSETLSLTCTVTGGSISRNYWSWIRQPPGKGLEWIGYIYYSGSIDYNPSLKSRVTISVDTSKNQFSLKLSSMTAADTAVYYCARDRWNWKYGMDVWGQGTTVIVSS
VL: EIVLTQSPGTLSLSPGERATLSCRASQTVRNNYLAWYHQKPGQAPRLLIYGASSRATGIPDRFSGSGSGTDFTLTISRLEPEDFTVYYCHQYGNSPWTFGQGTKMEIKR
B10: H2aM25695N (antibody, mouse IgG2a, V domains shown)
VH: B9 VH with D58N, T73M, S83N, M85V
VL: B9 VL with N32S, T85A, H90Q, N94S, P96Y
B11: H1H21234N (antibody, human IgG1, V domains shown)
VH: B9 VH
VL: B9 VL
B12: H1H27729P-N297Q (antibody, human IgG1, V domains shown)
VH: QVQLVESGGGLVKPGGSLRLSCAASGFIFSDYYMSWIRQAPGKGLEWVSYISSSGTTIYGDSVKGRFTMSRDNAKNSLYLQMNSLRAEDTAVYYCARNYALFDYWGQGTLVTVSS
VL: DIQMTQSPSSLSASVGDRVTITCQASQDISKYLNWYQQKPGKAPKLLIYYTSNLETGVPSRFSGSGSGTDFTFTISSLQPEDIATYYCHQSDYLPFTFGPGTKVDIKR
B13: H1H27734P-N297Q (antibody, human IgG1, V domains shown)
VH: EVQLVESRGGLVQPGGSLRLSCAASGFTFSSYAMSWVRQAPGKGLEWVSAISGSGGSTFYADSVKGRFTISRDNSKNTVYLQMNSLRAEDTAVYYCAKALVLRFLEWLGDYWGQGTLVTVSS
VL: DIQMTQSPSTLSASVGDRVTITCRASQSISSWLAWFQQKPGKAPKLLIYKASSLESGVPSRFSGSGSGTEFTLTISSLQPDDFATYYCQQYKSYWTFGQGTKVEIKR
B14: H2aM21229N (antibody, mouse IgG2a, V domains shown)
VH: EVQLVESGGGLVKPGGSLRLSCAASGFTFSRYSMNWVRQAPGKGLEWVSSISSSSSYIYYGDTVKGRFTISRDNAKKSLYLQMNSLRAEDTAVYYCVRDRGQLVLYFDYWGQGTLVTVSS
VL: DIQMTQSPASLSTSIRDRVTITCRASLSISSFLNWFQQRPGKAPKLLIYVASNLQSGVPSRFSDSGSGTDFTLTISSLQPEDFATYYCQQNYSTPPITFGQGTRLEIK

Molecular target: full length monkey MSR1 on HEK293.mfMSR1 cells (Macaca fascicularis)
Sequence (chain, as listed by the source): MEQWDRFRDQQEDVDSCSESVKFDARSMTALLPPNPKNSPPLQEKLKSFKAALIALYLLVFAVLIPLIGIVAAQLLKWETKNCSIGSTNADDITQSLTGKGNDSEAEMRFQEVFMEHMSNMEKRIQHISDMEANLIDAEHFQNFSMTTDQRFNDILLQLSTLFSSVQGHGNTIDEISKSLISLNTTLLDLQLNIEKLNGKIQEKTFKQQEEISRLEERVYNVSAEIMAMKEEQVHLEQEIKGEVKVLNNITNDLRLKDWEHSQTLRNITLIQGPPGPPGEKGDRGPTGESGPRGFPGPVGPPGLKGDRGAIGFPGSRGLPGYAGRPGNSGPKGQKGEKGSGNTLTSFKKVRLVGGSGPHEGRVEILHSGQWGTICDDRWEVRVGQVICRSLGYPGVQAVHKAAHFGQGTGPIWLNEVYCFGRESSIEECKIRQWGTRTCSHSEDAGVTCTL
Assay: ECL cell binding, HEK293.mfMSR1 cells

| Binder | ratio of 11 nM antibody binding signal (RLU) to isotype control |
| --- | --- |
| B1 | 23 |
| B2 | 75 |
| B3 | 25 |
| B4 | 26 |
| B5 | 69 |
| B6 | 21 |
| B7 | 53 |
| B8 | 20 |
| B9 | 35 |
| B10 | 45 |
| B11 | 31 |
| B12 | 6 |
| B13 | 28 |

Molecular target: full length human MSR1 with a C-terminal Myc tag on HEK293.Myc.hMSR1 cells (human) (UniProt P21757)
Sequence (P21757 whole entry): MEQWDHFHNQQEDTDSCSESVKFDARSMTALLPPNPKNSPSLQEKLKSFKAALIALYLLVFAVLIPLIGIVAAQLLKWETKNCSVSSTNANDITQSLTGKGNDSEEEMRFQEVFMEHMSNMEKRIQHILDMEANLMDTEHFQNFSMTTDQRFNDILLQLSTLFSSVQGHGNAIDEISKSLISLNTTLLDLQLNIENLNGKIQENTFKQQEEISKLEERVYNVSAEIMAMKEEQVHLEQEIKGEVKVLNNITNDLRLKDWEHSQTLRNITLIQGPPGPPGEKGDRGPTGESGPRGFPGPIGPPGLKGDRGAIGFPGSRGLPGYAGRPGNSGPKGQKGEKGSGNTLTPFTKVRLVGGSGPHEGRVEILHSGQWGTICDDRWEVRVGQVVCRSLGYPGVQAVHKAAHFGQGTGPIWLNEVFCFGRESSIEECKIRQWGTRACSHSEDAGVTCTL
Assay: ECL cell binding, HEK293.Myc.hMSR1 cells

| Binder | ratio of 11 nM antibody binding signal (RLU) to isotype control |
| --- | --- |
| B1 | 37 |
| B2 | 61 |
| B3 | 34 |
| B4 | 37 |
| B5 | 64 |
| B6 | 26 |
| B7 | 55 |
| B8 | 22 |
| B9 | 43 |
| B10 | 35 |
| B11 | 32 |
| B12 | 17 |
| B13 | 40 |
| B14 | 78 |

Molecular target: mouse MSR1 on RAW264.7 cells (mouse) (UniProt P30204)
Sequence (P30204 whole entry): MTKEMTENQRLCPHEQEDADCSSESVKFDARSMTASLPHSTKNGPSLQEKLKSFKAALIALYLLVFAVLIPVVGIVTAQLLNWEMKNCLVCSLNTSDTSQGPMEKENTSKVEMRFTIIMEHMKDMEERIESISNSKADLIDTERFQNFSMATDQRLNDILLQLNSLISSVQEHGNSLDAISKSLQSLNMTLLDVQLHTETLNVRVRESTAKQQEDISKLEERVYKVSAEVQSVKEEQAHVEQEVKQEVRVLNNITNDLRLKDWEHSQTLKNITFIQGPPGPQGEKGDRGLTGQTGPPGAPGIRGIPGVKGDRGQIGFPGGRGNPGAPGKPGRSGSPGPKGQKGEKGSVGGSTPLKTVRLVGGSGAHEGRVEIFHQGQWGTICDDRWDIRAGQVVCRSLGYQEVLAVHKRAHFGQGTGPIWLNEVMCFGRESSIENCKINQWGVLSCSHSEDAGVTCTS
Assay: flow cytometry, RAW264.7 cells, 10 ug/mL

| Binder | MFI | S/N |
| --- | --- | --- |
| B1 | 12800 | 5 |
| B5 | 3580 | 1 |
| B6 | 3630 | 1 |
| B7 | 5410 | 1 |
| B8 | 3270 | 1 |
| B9 | 7050 | 3 |
| B12 | 3480 | 1 |
| B13 | 4780 | 1 |

Molecular target: endogenously expressed human MSR1 on PMA-treated THP-1 cells (human) (UniProt P21757)
Sequence (P21757 whole entry): as the sequence (P21757 whole entry) above
Assay: ECL cell binding, PMA-treated THP-1 cells

| Binder | ratio of 11 nM antibody binding signal (RLU) to isotype control |
| --- | --- |
| B1 | 5 |
| B2 | 42 |
| B3 | 6 |
| B4 | 7 |
| B5 | 45 |
| B6 | 13 |
| B7 | 66 |
| B8 | 9 |
| B9 | 25 |
| B10 | 8 |
| B11 | 18 |
| B12 | 8 |
| B13 | 21 |
| B14 | 56 |

Molecular target: human MSR1 extracellular domain expressed with a N-terminal nonahistidine tag (His9-hMSR1; R&D Systems, Cat #2708-MS) (human) (UniProt P21757)
Sequence (P21757 other isoform, or with tags, fused parts or gaps): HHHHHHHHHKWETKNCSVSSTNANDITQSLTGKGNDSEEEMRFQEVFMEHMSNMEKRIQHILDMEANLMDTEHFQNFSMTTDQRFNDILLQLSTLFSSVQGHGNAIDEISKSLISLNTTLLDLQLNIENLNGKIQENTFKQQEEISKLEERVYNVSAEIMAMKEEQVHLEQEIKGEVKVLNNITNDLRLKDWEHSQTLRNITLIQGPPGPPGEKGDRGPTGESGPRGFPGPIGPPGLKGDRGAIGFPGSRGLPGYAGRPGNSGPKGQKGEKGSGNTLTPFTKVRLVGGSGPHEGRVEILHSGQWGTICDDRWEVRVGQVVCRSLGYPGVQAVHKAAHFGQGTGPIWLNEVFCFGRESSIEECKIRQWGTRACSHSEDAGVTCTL
Assay: competition ELISA; 100 nM antibody, competitor Ac-LDL, plate-coated His9-hMSR1

| Binder | % Blocking [%] |
| --- | --- |
| B1 | 105 |
| B2 | -62 |
| B3 | 101 |
| B4 | 105 |
| B5 | -60 |
| B6 | -44 |
| B7 | -42 |
| B8 | -47 |
| B9 | 75 |
| B10 | 65 |
| B11 | 70 |
| B12 | 8 |
| B13 | -38 |
| B14 | -11 |

Molecular target: human MSR1 extracellular domain expressed with a N-terminal nonahistidine tag (His9-hMSR1; R&D Systems, Cat #2708-MS) (human) (UniProt P21757)
Assay: competition ELISA; 1 µM antibody, competitor 10 nM Ox-LDL, plate-coated His9-hMSR1

| Binder | % Blocking [%] |
| --- | --- |
| B6 | -31 |
| B7 | -44 |
| B8 | -41 |
| B12 | 36 |
| B13 | -15 |

Molecular target: human MSR1 extracellular domain expressed with a N-terminal nonahistidine tag (His9-hMSR1; R&D Systems, Cat #2708-MS) (human) (UniProt P21757)
Assay: competition ELISA; 500 nM antibody, competitor 5 nM Ox-LDL, plate-coated His9-hMSR1

| Binder | % Blocking [%] |
| --- | --- |
| B14 | 38 |

Molecular target: human MSR1 extracellular domain expressed with a N-terminal nonahistidine tag (His9-hMSR1; R&D Systems, Cat #2708-MS) (human) (UniProt P21757)
Assay: competition ELISA; 300 nM antibody, competitor biot-AGE-BSA, plate-coated His9-hMSR1

| Binder | % Blocking [%] |
| --- | --- |
| B1 | 96 |
| B2 | -44 |
| B3 | 97 |
| B4 | 99 |
| B5 | -50 |
| B6 | -2 |
| B7 | -9 |
| B8 | -9 |
| B9 | -27 |
| B10 | 16 |
| B11 | 21 |
| B12 | 15 |
| B13 | -4 |
| B14 | 3 |

Molecular target: human MSR1 extracellular domain expressed with a N-terminal nonahistidine tag (His9-hMSR1; R&D Systems, Cat #2708-MS) (human) (UniProt P21757)
Assay: competition ELISA; 500 nM antibody, competitor 10 nM Ox-LDL, plate-coated His9-hMSR1

| Binder | % Blocking [%] |
| --- | --- |
| B1 | 97 |
| B2 | 22 |
| B3 | 99 |
| B4 | 100 |
| B5 | 26 |
| B9 | 49 |
| B10 | 96 |
| B11 | 98 |
